Reference: article doi:10.1101/2022.02.09.479832v2 (biorxiv, 2022)
Read-outs that look alike come from different tables or passages of the source. Blank lines part the entries; values can stand above or below the molecule they belong to.

Assays:
PmIleRS1 [1] = biological target: T1, PmIleRS1 (Priestia megaterium, UniProt A0A0B6A6A8); experiment: time courses fitted to slow-binding equation, Ki = koff/kon; format: biochemical; settings: competitive, tight binding, 30 °C
T1 sequence (A0A0B6A6A8 1-921): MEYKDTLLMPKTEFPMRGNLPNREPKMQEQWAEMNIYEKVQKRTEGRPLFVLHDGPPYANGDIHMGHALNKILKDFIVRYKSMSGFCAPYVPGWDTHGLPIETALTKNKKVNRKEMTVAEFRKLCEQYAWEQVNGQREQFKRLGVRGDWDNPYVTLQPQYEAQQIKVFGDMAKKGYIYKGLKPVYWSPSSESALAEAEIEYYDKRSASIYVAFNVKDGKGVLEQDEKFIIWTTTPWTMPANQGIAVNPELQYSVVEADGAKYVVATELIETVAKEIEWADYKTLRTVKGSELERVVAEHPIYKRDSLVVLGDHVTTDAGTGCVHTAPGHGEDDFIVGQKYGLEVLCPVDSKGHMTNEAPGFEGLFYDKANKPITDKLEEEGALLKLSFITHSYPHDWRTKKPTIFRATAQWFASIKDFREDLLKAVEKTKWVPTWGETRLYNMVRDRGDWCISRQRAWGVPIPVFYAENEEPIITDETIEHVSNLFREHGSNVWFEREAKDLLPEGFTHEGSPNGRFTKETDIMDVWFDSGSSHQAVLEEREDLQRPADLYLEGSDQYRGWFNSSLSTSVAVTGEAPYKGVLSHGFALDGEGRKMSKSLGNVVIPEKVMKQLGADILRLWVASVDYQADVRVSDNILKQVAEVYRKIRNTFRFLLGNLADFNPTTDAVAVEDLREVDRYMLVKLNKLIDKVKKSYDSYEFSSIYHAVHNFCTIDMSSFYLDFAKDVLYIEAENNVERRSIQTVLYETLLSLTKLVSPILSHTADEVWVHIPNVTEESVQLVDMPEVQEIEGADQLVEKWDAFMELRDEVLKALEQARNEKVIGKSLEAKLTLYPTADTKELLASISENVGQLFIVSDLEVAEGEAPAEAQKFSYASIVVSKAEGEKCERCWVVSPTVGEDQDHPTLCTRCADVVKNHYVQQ

PmIleRS1 [2] = biological target: T1, PmIleRS1; experiment: biochemical; settings: read-out: kon
PmIleRS2 [3] = biological target: T2, PmIleRS2 (Priestia megaterium, UniProt A0A0B6AVD3); experiment: biochemical
T2 sequence (A0A0B6AVD3 1-1032): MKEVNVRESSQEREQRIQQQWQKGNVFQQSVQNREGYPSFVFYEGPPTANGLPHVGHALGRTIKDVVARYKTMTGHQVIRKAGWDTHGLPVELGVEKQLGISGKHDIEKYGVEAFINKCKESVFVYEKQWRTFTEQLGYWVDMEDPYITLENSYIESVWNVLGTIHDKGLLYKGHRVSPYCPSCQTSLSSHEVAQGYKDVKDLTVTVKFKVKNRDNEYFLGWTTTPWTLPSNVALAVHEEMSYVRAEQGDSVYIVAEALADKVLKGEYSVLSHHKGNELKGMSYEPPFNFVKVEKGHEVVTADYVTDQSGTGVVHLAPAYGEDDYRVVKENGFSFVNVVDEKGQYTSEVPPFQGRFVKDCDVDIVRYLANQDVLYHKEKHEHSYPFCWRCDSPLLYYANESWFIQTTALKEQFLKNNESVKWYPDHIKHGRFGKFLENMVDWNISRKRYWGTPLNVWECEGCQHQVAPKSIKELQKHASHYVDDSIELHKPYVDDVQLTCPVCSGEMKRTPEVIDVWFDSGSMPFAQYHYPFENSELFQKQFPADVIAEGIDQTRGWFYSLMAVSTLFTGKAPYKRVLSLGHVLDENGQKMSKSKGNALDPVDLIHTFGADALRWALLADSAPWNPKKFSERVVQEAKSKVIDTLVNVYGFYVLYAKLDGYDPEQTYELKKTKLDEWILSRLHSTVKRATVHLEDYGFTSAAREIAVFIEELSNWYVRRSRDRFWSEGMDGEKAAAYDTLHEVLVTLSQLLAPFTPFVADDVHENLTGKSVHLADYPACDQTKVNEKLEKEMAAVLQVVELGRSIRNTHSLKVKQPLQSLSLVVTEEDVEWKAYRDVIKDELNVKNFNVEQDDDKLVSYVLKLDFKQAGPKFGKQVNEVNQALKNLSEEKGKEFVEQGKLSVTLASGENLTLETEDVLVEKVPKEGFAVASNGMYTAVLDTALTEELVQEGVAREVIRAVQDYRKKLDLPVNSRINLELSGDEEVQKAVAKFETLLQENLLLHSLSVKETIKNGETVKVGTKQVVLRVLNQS

PmIleRS2 [4] = biological target: T2, PmIleRS2; experiment: biochemical; remark: listed apart in the source
PmIleRS1 [5] = biological target: T1, PmIleRS1; experiment: biochemical; settings: read-out: koff
[6] = substrate: CC[C@H](C)[C@H](N)C(=O)O; experiment: purified protein, by the assay type
[7] = substrate: Nc1ncnc2c1ncn2[C@@H]1O[C@H](COP(=O)(O)OP(=O)(O)OP(=O)(O)O)[C@@H](O)[C@H]1O; experiment: purified protein, by the assay type
[8] = substrate: CC[C@@H](C)[C@@H](N)C(=O)O; experiment: purified protein, by the assay type; settings: 30.0 °C
[9] = substrate: CC(C)[C@H](N)C(=O)O; experiment: purified protein, by the assay type; settings: 30.0 °C
[10] = substrate: CCC[C@H](N)C(=O)O; experiment: purified protein, by the assay type; settings: 30.0 °C
[11] = substrate: Nc1ncnc2c1ncn2[C@@H]1O[C@H](COP(=O)(O)OP(=O)(O)OP(=O)(O)O)[C@@H](O)[C@H]1O; experiment: purified protein, by the assay type; settings: 30.0 °C
[12] = substrate: CC[C@H](C)[C@H](N)C(=O)O; experiment: purified protein, by the assay type; settings: 30.0 °C

Ki (PmIleRS1 [1]): 0.285 ± 0.146 nM | kon (PmIleRS1 [2]): 1.51e+06 M⁻¹ s⁻¹ | Ki (PmIleRS2 [3]): 1040 ± 40 nM | Ki (PmIleRS2 [4]): 1080 ± 60 nM | koff (PmIleRS1 [5]): 0.00043 s⁻¹
Molecule: C/C(=C\C(=O)OCCCCCCCCC(=O)O)C[C@@H]1OC[C@H](C[C@@H]2O[C@H]2[C@@H](C)[C@H](C)O)[C@@H](O)[C@H]1O [mupirocin]

B1: PmIleRS2 (Priestia megaterium NBRC 15308 = ATCC 14581) (protein)
chain: MKEVNVRESSQEREQRIQQQWQKGNVFQQSVQNREGYPSFVFYEGPPTANGLPHVGHALGRTIKDVVARYKTMTGHQVIRKAGWDTHGLPVELGVEKQLGISGKHDIEKYGVEAFINKCKESVFVYEKQWRTFTEQLGYWVDMEDPYITLENSYIESVWNVLGTIHDKGLLYKGHRVSPYCPSCQTSLSSHEVAQGYKDVKDLTVTVKFKVKNRDNEYFLGWTTTPWTLPSNVALAVHEEMSYVRAEQGDSVYIVAEALADKVLKGEYSVLSHHKGNELKGMSYEPPFNFVKVEKGHEVVTADYVTDQSGTGVVHLAPAYGEDDYRVVKENGFSFVNVVDEKGQYTSEVPPFQGRFVKDCDVDIVRYLANQDVLYHKEKHEHSYPFCWRCDSPLLYYANESWFIQTTALKEQFLKNNESVKWYPDHIKHGRFGKFLENMVDWNISRKRYWGTPLNVWECEGCQHQVAPKSIKELQKHASHYVDDSIELHKPYVDDVQLTCPVCSGEMKRTPEVIDVWFDSGSMPFAQYHYPFENSELFQKQFPADVIAEGIDQTRGWFYSLMAVSTLFTGKAPYKRVLSLGHVLDENGQKMSKSKGNALDPVDLIHTFGADALRWALLADSAPWNPKKFSERVVQEAKSKVIDTLVNVYGFYVLYAKLDGYDPEQTYELKKTKLDEWILSRLHSTVKRATVHLEDYGFTSAAREIAVFIEELSNWYVRRSRDRFWSEGMDGEKAAAYDTLHEVLVTLSQLLAPFTPFVADDVHENLTGKSVHLADYPACDQTKVNEKLEKEMAAVLQVVELGRSIRNTHSLKVKQPLQSLSLVVTEEDVEWKAYRDVIKDELNVKNFNVEQDDDKLVSYVLKLDFKQAGPKFGKQVNEVNQALKNLSEEKGKEFVEQGKLSVTLASGENLTLETEDVLVEKVPKEGFAVASNGMYTAVLDTALTEELVQEGVAREVIRAVQDYRKKLDLPVNSRINLELSGDEEVQKAVAKFETLLQENLLLHSLSVKETIKNGETVKVGTKQVVLRVLNQS
Km [6]: 6.2 ± 0.8 µM | kcat/Km [6]: 150000 M⁻¹ s⁻¹ | Km ([6]; 30.0 °C): 69.3 ± 5.5 µM | kcat/Km ([6]; 30.0 °C): 940000 M⁻¹ s⁻¹ | Km [7]: 76.4 ± 1.4 µM | kcat [7]: 0.96 ± 0.03 s⁻¹ | kcat/Km [7]: 10000 M⁻¹ s⁻¹ | Km ([7]; 30.0 °C): (3.8 ± 0.2) × 10^3 uM | kcat/Km ([7]; 30.0 °C): 20000 M⁻¹ s⁻¹ | Km [8]: (2.3 ± 0.1) × 10^3 uM | kcat [8]: 1.54 ± 0.03 s⁻¹ | kcat/Km [8]: 670 M⁻¹ s⁻¹ | Km [9]: (5.4 ± 0.4) × 10^3 uM | kcat [9]: 39 ± 1 s⁻¹ | kcat/Km [9]: 7000 M⁻¹ s⁻¹ | Km [10]: (7.97 ± 0.84) × 10^3 uM | kcat [10]: 33 ± 1 s⁻¹ | kcat/Km [10]: 4100 M⁻¹ s⁻¹ | Km [11]: (1.6 ± 0.1) × 10^3 uM | kcat/Km [11]: 40000 M⁻¹ s⁻¹ | Km [12]: 48.6 ± 1.9 µM | kcat/Km [12]: 1.4e+06 M⁻¹ s⁻¹
